Results: the DeepSol protein solubility set

Experiment: soluble on expression in E. coli; label from the status in PepcDB or PDB records
For “MNNVEKAIEALKKGEIILVYDSDEREGETDMVVASQFITPEHIRIMRKDAGGLICTALHPDICNKLGIPFMVDILEFASQKFKVLRELYPNDIPYDEKSSFSITINHRKTFTGITDNDRAFTIKKLAELVKEGRFNDFGKEFRSPGSVTLLRAAEGLVKNRQGHTEMTVALAELANLVPITTICEMMGDDGNAMSKNETKRYAEKHNLIYLSGEEIINYYLDKYLKD”, the “soluble on expression in E. coli” value was “soluble”. For “MGSDKIHHHHHHMVEELLGKALARKRSLRKDETIDVFNRVTYFFPKDFVITNYPRNPVAVFNPGAVLVGKALHVFPRLIFDYYKYVSSIGHFIVNIDDLLNGEVKKPLEMEVVFWPRDIQEFLGCEDPRVFFRNSRFELLYTAKGYKDWSQEGKPHTDFLAYAVLDEDLNLIEKRYISIKSTLGEYVPVSMKDSSFVESKVILTRLTVGDAKVCWRGRLEGSYIDLYSLDPVFFPEEWETKVGWSTNTVEVKEGYLVGWHAVLKDLTYKNGLALVDGRGRLLGTTNYVLSPKGVIEEYGDRIRVIFGCGLVVYGGRVIWIGGVSDWAIGVFETSEREIMNLMKEAT”, the “soluble on expression in E. coli” value was “not soluble”. For “MGSDKIHHHHHHDDPFYAPVYPEAPPTKIAATGSIYQDSQAASLYSDIRAHKVGDIITIVLKEATQAKKSAGNQIKKGSDMTLDPVYAGGSNLSLGGIPLDLRYKDSMNTKRESDADQSNSLDGSISANIMQVLNNGNLVVRGEKWISINNGDEFIRVTGIVRSQDIKPDNTIDSTRMANARIQYSGTGTFAEAQKVGWLSQFFMSDWWPF”, the “soluble on expression in E. coli” value was “not soluble”. For “MDISSTEIWDAIRRNSFLLYYQPKVDAKTNELIGFEGLIRLKTATAILAPADFFEDIALLNATREMQDFVAETAIEQINQLGGRFSISINIPAHYVVSSNYMTFLYDYVKEHLKYPECLEIEIIERGEITELAVADKNLRKIKKLGVTVSMDDFGKGYSSLAYLRSLPIDIVKTDMSFIALLKTDRKQQIIIQAIVNLCHDLGGKVVTEGVEDIEQVKTLREMKVDYFQGYYFSRPLPMKEIKEKYSIV”, the “soluble on expression in E. coli” value was “not soluble”. In the case of “GAMDMLGTSFNNFGISLSHKRYFSGKVDEIIRCTMGKRIVKISSTKINTSILSSVSEQIGENITDWKNDEKKVYVSRVVNQCIDKFCAEHSRKIGDNLRKQIFKQVEKDYRISLDINAAQSSINHLVSGSSYFKKKMDELCEGMNRSVKNDTTSNVANLISDQFFEKNVQYIDLKKLRGNMSDYITNLESPF”, the “soluble on expression in E. coli” value was “soluble”. With “MSLSTVISSEASNYDHWAWLYNHTLGPRYSEQKIAPLARAVLSQLPNGASVLDLCCGTGHLAKLMADRGYAVTGLDGSQDMINHARGNAPDLEFVLGDARDFTFEQPFDGVVCTSASLNHIQNTEDLRKVFSSVRRCLKDEGIFAFDINHPGQMARYWRDVPAEGELTDDYAWLITPRYNSQSNEGSFTVEIHTRPKAARFSLAEAAYRLAARLLSNRRRLALIARFGIPGNNWERHSVTNPVWGHDLDTVTELLRASGFSVKMRSTDGGPVTDERAVYFLCTKIAGDRAGQEVTKEAVEEGHHHHHH” the “soluble on expression in E. coli” value was “soluble”. In the case of “MGSDKIHHHHHHMTRAELYAVLDRFLAALDARDPTALDWAPGAHHSENNVMLEIGDGVWGTIDRLGDYRLRFADTRTRQVGYFGTVIEPIEESAFTLRLALDEAGRIAECEMLIVRQSDSGIKFENCRYWDKPILHREPEAPVSRQEMVRLSNGYFDTLQRNDGTIHTRFHPDCNRVENGVQTTRNPDFAKIVPVSALGCEEQFRMGNYRYDDDLRARRFPLVDEERGLVLAFGFIDHSGRLREFQLTDGRTVKSPVLRPHSFYISELFKIDHGMIEQIEANFITVPYRMPSPWDLL”, the “soluble on expression in E. coli” value was “not soluble”. For “MSKKVAILVDGDFFIRCYKSHLKKQPEDLNPKKLAHHIHTYCLKHINKKNDEELYRIFFYDCKPLKKKAHYPYTQKALDLSKSPTYREREELHEHLISKPCLALRLGYLDEKNARWVIRDQEKEKKLFNRRISIEEFQNDDFIYHAKQKGVDIKIGLDIATLALKKLVQKIVLISGDSDFVPASKLARVEGIIFTLDPMGNHIREDLKEHIDYLTTRLPQFKQQ”, the “soluble on expression in E. coli” value was “soluble”. In the case of “MGSDKIHHHHHHAEQKEEGISVLRYDKLLSEYVRSNSFSAMQKLTMDYRQPTKILIEDVLSIGTVKDDTISQRLQKFYSDSTLLRLLSDVEAKYPNLDEVEKGLTKGFRKLKKEVPDTKIPFIYSQISAFNESIILVDTLLGISLDKYMGEDYPLYKRFYYDYQCTSMRPERIVPDCFAFYLLSRYEMNYHEGTCLVDLMMHSGKINYVVQHLLGYDDIGQAMGYSDQENEWCRKNEKDIWEYICANDHLHARDPMVIRYYMKPAPTVDMLGGQAPALIGSWVGARIIASYMKKHKDLKIKDLLELTDYQSMFEESGYLKL”, the “soluble on expression in E. coli” value was “not soluble”. In the case of “VFLDFEKGIEEFEAKIEQLRFAQDNSALDISAEIARLQTKSLGLTKSVYAKLTPWQISQVARHPQRPYTLDYVQHLFTDFEELHGDRNFADDQAIVGGLARFNGQTVMIIGHQKGRDTKEKIHRNFGMPKPEGYRKALRLMRLAEKFSI”, the “soluble on expression in E. coli” value was “not soluble”. For “MFQPEKIDPEEATAAIAEVAYIVTVSDYIGNVIRSLYPQASPKLRTIYSVVDSERFLPGNHPKMQKIRNDIRRAHGLENKTVILFAGRLSRNKGVDKLILALPELAKKFKNLALVIVGSNWFSENDITDYVAYVRALAKRMPVPVVTTGFVPPNEIQNWFAAADLFVCTSQWQEPLARVHYEAMAAGLPIVTTARGGNPEVIFANENGLIVENPEDPSDFANKIAQILSDQSLMRRMGEKGRQLAISIYHWERVASELLEVWEQAEKTEQAVVSEEQAAGMTIEPLKEDATEQLNGPTPKADAKEKVHSKKNAAASSNKTKKGKAKKERAISMEDHQQTAKQKEAAAERTELAKSAPAPKQPQTGRHIKPFTIASGNQQTLDASPKTHLNRKLAQAKHDTKHFTIASSH”, the “soluble on expression in E. coli” value was “not soluble”. In the case of “MGEYERTVFTRRITGVETEYGITCVGDNSRRRLGADEAARYMFRPVVEEWGSSNVFIPNGARLYLDVGSHPEYASAECDSLSQLIAYDRAGDKIVDQLAQRAETALATEGIGGRVYLFKNNLDSLGNSYGCHENYLVSRDVVLKTLGRQLLPFLITRQLICGAGSIQDGQFQVSQRADHVWEGVSSATTRSRPIINTRDEPHADSHRFRRLHVIVGDSNMSETTCALKIGSTQLVLEMIEAGALSHDLELSNEIAAIREISRDITGMAPVPLKAGTSMPAIEIQRRYAEKALCWLEQRGDTEGTPNAEMHKVVSLWLDTISAIESNDLQALSRDIDWAIKLSLLRRAQRRIGCSESDFTHPKLAQLDLAYHDIRAGRGVFPVLESKQLVNRWINDTDIEQATRIAPSTTRAALRGEFLTAAKKLQAPISADWLRLKVNRPEPQIIELTDPFENTDDRVDQLISYMRNHAASYSTDTAIS”, the “soluble on expression in E. coli” value was “not soluble”. With “MSYQPPPNGQMPGYPQQQFNQQPQFQSNGFPPPAAPQKPAQVPGGFPPPHQQPNGQYQNGGLNGNSSHLAQSVNNMSIGARSTPSAQPPNPYQPAGYPGAPPQQLQQVQRQQTPQQFAAVPQSVQAPSATPAGPLQAMQQAPAPTPGIPQMNQGAHLPPQPHQIHQPTPLRPQIPGFPQAGGSPSSFQAGAPTSQNVQGYPGGPSSAPSAYPGAPQVPQAPNSFIPPGTGGFPPGQPTAGSFPPGPQVPGSYPSGPADIPQGPGMPRAFPPGASAPVAPGMPGAFPPGQGGPGMPGSFPPGAPGPGGPGMPGSFAPGAPGPGGPGGYPSGGPGMPGMQGGYPGGPPQQRQQRLDPNMMPSAVQVIDDDSSTRSGIFPTGYPNAELPPLVSTNSFAQDQGNCNPKFMRSTLYTAPQTNDILKASQIPLAVVISPFASLTEYEKEPPVVDLGPQGPIRCQRCKAYICPFMEFQDGGRSFRCPFCHARTSVEDAYFAHLDHTGRRTDIEMRPELCLGAYDLVATKQYCKNGIAPKEPAFIFMIDVSYNAISNGMLPILCQNLEKVLRNLPRESGQLESSMRIGLATFDQAVHFFDISSASPKMLVMSDVQEPFVPMVDGLLLPYNEALPGLRAALAEIPKLFSQSKTTETILQPVVQAGLDALKCADRAGKVILFSTVLPTYDAPGKLKSKNDRSLLGTDKEKNALVPQEDSYTKLGEQCVKSGVTVDLFLFPNAFIDVATIGQLSAVTGGSIFKFQYFSADKDGVRMLNELERHVSKKIAFDCMARVRTSTGIRPITFTGSFYMENSTDLELATLDESKAFITEIKHDDSLKDPASFIQTAVLYTSMTGQRRLRILNLCLPVTADYNQVYRLADPEALTAFMLKQAVQLNRDKGSSEMRESLSSRCAQFLATYREKCSEGAPLGQLILPESLKLMPLYVNSILKNDAISGGSEMTVDDKVWQMELIRGLRTENVMPLIYPRVMPISDLQINDTEEMKDLPKPVRASSEFLENSKAYIIDNGVILFVWVGSACPQTWVQDVFGVGATNQIDTESGTIPEKDNGHSRALRRAIQLLPRGIRERKTFVVVEKSGLEPWMKKFLVEDKAGPANMSYVDYLVDIHRKIRDLIS” the “soluble on expression in E. coli” value was “not soluble”. With “MKRIGLTGNIGCGKSTVAQMFRELGAYVLDADKLIHSFYRKGHPVYEEVVKTFGKGILDEEGNIDRKKLADIVFKDEEKLRKLEEITHRALYKEIEKITKNLSEDTLFILEASLLVEKGTYKNYDKLIVVYAPYEVCKERAIKRGMSEEDFERRWKKQMPIEEKVKYADYVIDNSGSIEETYKQVKKVYEELTRDPLEHHHHHH” the “soluble on expression in E. coli” value was “soluble”. In the case of “MKSACSIITASIVLYKSKPDIIRDVITSFFSDTVTKKKLILIDNSPTDSLRVLQEERPEDIQYFFNNRNIGFGSAHNIGIREAARFNPSYHLILNPDVQFGPEVVPTLASYMDENPDIGLLMPQVYYPNGELQHLCKLFPRPWDVMLRRFVPYRSYRERNNERFELRNWSYDTIQDIPSLSGCFMFARMDILREVGGFDERFFMYAEDLDLCRRIGQVSRTVFFPKVSIMHTYAKGSYHDAKLLRHHIVSLIRYFNKWGWLFDAERRRVNRACLAVLRNQTTVKKD”, the “soluble on expression in E. coli” value was “not soluble”. With “SNAMTKPMIQIALDQTNLTDAVAVASNVASYVDVIEVGTILAFAEGMKAVSTLRHNHPNHILVCDMKTTDGGAILSRMAFEAGADWITVSAAAHIATIAACKKVADELNGEIQIEIYGNWTMQDAKAWVDLGITQAIYHRSRDAELAGIGWTTDDLDKMRQLSALGIELSITGGIVPEDIYLFEGIKTKTFIAGRALAGAEGQQTAAALREQIDRFWP” the “soluble on expression in E. coli” value was “soluble”. For “MEERGDSEPTPGCSGLGPGGVRGFGDGGGAPSWAPEDAWMGTHPKYLEMMELDIGDATQVYVAFLVYLDLMESKSWHEVNCVGLPELQLICLVGTEIEGEGLQTVVPTPITASLSHNRIREILKASRKLQGDPDLPMSFTLAIVESDSTIVYYKLTDGFMLPDPQNISLRR”, the “soluble on expression in E. coli” value was “soluble”. With “MWRRYPQVEEKLGWYSRVMRGEEPPKYRIVRTFEVGFDSEDDIRRALTEELWREHERVAGEFRRLFRSLREGGSYEGDIKDARPSLMDVKVELVRRLASPCELCERRCRVERAKSRRGACRLAWEVYVHSAFLHLGEEAPLVPSGTIFYGGCNFTCVFCQNWDVSQWKARDAHIVTPRRLGEIQDRLAEAGARNINHVGGDPVPSLHVIVESMKYASHLKPQLWNSNMYMTLEALDILVDLIDIWLPDLKFGNDRCAMRLSAVPRYWEVTTRNILLAAEHGDMIIRHLVMPGHVECCTKPVLRWIAENLGDRVLVNIMDQYHPDNLVLRMPHKWPEIARRPSRREIEEAWRYAEQLGLDWEPVTK” the “soluble on expression in E. coli” value was “not soluble”. For “MGSDKIHHHHHHMTTWVLLRGLMRDQRHWNGFDQRLRQKGLRVLTPDLPGNGTLSTEASPLKIADYAHAVWLQLDEQVQEGETIYLLGLSMGGMLALEMARQRPWLIRHVFVLNSSAANLSAWYQRFNPLNALKAFFLRARGKALHPIESTIVRLTSFRHRLDCGLIAEWSEFRRQSSPTIRNAWRQLWAAFQYQCPLTVEVPISVLCGDRDALVSMASSKALALHFHTDLIVLAYCGHDAAIDAPAKLAHYLLAIVAPTKLQAEVQEDDEPAHAQYAHTQYSCNDLLEEEMAFNEAIFSVWDEKALSTLHSKSSAMNSAKTVNS”, the “soluble on expression in E. coli” value was “not soluble”.
